What was measured:
[1] = target: human chemokine CXCL8 (IL-8), commercial recombinant (human); experiment: ELISA; 50 pg chemokine mixed in solution with 2-400 ng recombinant M3 in 110 ul, 21 C, 1.5 h with gentle shaking, then applied to DuoSet sandwich ELISA plates; drop of OD492 against chemokine without M3 = % inhibition; IC25/IC50 = M3 concentration that removes 25 or 50% of the chemokine; three independent experiments
[2] = target: human chemokine CCL5 (RANTES), commercial recombinant (human) (UniProt P13501); experiment: as above
Chain of UniProt P13501 (P13501 24-91): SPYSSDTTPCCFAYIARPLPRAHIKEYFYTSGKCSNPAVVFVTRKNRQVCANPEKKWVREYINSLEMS

Row | Substance | IC25 [1] [nM] | IC25 [2] [nM] | IC50 [2] [nM]
1 | M3-E70A mutant of MHV-68 M3 protein, recombinant, C-terminal His-tag (natural protein) | 11.5 | 3.5 | 8.7
2 | M3-T272G mutant of MHV-68 M3 protein, recombinant, C-terminal His-tag (natural protein) | 42.5 | 30.2 | > 90
3 | wild-type M3 protein of murine gammaherpesvirus 68 (MHV-68), recombinant, C-terminal His-tag (natural protein) | 8.7 | 7.1 | 16.2
